Source: PMC9606946, “Programmed Aptamer Screening, Characterization, and Rapid Detection for α-Conotoxin MI”
“And” between values parts separate entries of the source, which are not always exact repeats. Equal values may be shown once. Where no end group is shown, it is not given here.

Target: T1, alpha-conotoxin MI (CTX-MI) (Conus magus, UniProt P01521 1-14, disulfide (positions not given here); not fully specified; also: two disulfides as in P01521)
T1 chain: GRCCHPACGKNYSC-NH2
Test: BLI
Details: protein: commercial, tags: none, label: biotin

B1: MBMI-94 (ssDNA)
DNA: ATTGGCACTCCACGCATAGGAGCGGGGTTGGTTTGCGGGAGGGGGGGTGGAGGTAAGCTCCCTATGCGTGCTACCGTGAA
With B1 the Kd was 2330 nM.

Work on ATTTGGGTTTCGGGATAAGGGGCAAAAGGACAGGTTTTGT (ssDNA) [MBMI-02c] yielded a Kd of 1290 nM.

B2: MBMI-39 (ssDNA)
DNA: ATTGGCACTCCACGCATAGGGTAGGGGATTTAAGGAGGGGCCTTAGGAGGGGGGGGGTAACCTATGCGTGCTACCGTGAA
B2 was tested, and the Kd was 430 nM.

Binder CTCGCGGAGGGAGGGGTTTTGGGGGGCGGGATGGTATTGG (ssDNA) [MBMI-92c] has a Kd of 1320 nM.

B3: MBMI-08 (ssDNA)
DNA: ATTGGCACTCCACGCATAGGCAACGGGGGGGTGGGGAGAGAAGGGTTGAGTGACAATTTGCCTATGCGTGCTACCGTGAA
Binder B3 has a Kd of 12000 nM.

B4: MBMI-92 (ssDNA)
DNA: ATTGGCACTCCACGCATAGGCTCGCGGAGGGAGGGGTTTTGGGGGGCGGGATGGTATTGGCCTATGCGTGCTACCGTGAA
For B4, the Kd was 260 nM.

In the case of TTTGGGGATGGGCAACGGTAAAAAGGGTCAAAAGGCTTTT (structured_DNA) [MBMI-01c], the Kd (antiparallel G-quadruplex) is reported as 870 nM and 729 nM.

In the case of TTTGGGGATGGGCAACGGTAAAAAGGGTCAAAACCCTTTT (ssDNA) [M3], the Kd (remaining predicted GQ cores A,B) is reported as 1560 nM.

TTTCCGGATGGGCAACGGTAAAAAGGGTCAAAAGGCTTTT (ssDNA) [M1] was tested, and the Kd (remaining predicted GQ cores C,D) was 1520 nM.

B5: MBMI-22 (ssDNA)
DNA: ATTGGCACTCCACGCATAGGCAAGAAGGGGGAGGGTGGTATGTGTCGGGGGGAGGGGTGGCCTATGCGTGCTACCGTGAA
In the case of B5, the Kd is reported as 21200 nM.

Binder TTTGGCCATGGCCAACGGTAAAAAGGCTCAAAACCCTTTT (ssDNA) [M2] has a Kd (remaining predicted GQ core A) of 741 nM.

B6: MBMI-51 (ssDNA)
DNA: ATTGGCACTCCACGCATAGGAAGGTGGAATCGGAGGGGGTGCTTGGGTGGGGGTGGGATTCCTATGCGTGCTACCGTGAA
In the case of B6, the Kd is reported as 14000 nM.

B7: MBMI-01 (ssDNA)
DNA: ATTGGCACTCCACGCATAGGTTTGGGGATGGGCAACGGTAAAAAGGGTCAAAAGGCTTTTCCTATGCGTGCTACCGTGAA
B7 gave a Kd of 850 nM.

B8: MBMI-03 (ssDNA)
DNA: ATTGGCACTCCACGCATAGGGGCGCTTGTGGTGTAAGGGTTGGGTATATGTCGTAATAGGCCTATGCGTGCTACCGTGAA
In the case of B8, the Kd is reported as 3490 nM.

B9: MBMI-02 (ssDNA)
DNA: ATTGGCACTCCACGCATAGGATTTGGGTTTCGGGATAAGGGGCAAAAGGACAGGTTTTGTCCTATGCGTGCTACCGTGAA
Work on B9 yielded a Kd of 2210 nM.
